B1: VLMDKLVEL (peptide)
peptide: VLMDKLVEL
B2: KLLDLETERILL (peptide)
peptide: KLLDLETERILL
B3: GLFAPLVFL (peptide)
peptide: GLFAPLVFL
B4: GLAFSLNGV (peptide)
peptide: GLAFSLNGV
B5: LLYEGKLTL (peptide)
peptide: LLYEGKLTL
B6: ALSQVTLLL (peptide)
peptide: ALSQVTLLL
B7: SLLPQLIEV (peptide)
peptide: SLLPQLIEV
B8: LLLGERVAL (peptide)
peptide: LLLGERVAL
B9: GLLSGLDIMEV (peptide)
peptide: GLLSGLDIMEV
B10: QLHDFVMSL (peptide)
peptide: QLHDFVMSL
B11: LLFPHPVNQV (peptide)
peptide: LLFPHPVNQV
B12: RIAGIRGIQGV (peptide)
peptide: RIAGIRGIQGV
B13: KLFEEIREI (peptide)
peptide: KLFEEIREI
B14: KLYQEVEIASV (peptide)
peptide: KLYQEVEIASV
B15: YLEPYLKEV (peptide)
peptide: YLEPYLKEV
B16: SLLEEPNVIRV (peptide)
peptide: SLLEEPNVIRV
B17: RLFNDPVAMV (peptide)
peptide: RLFNDPVAMV
B18: VMQDPEFLQSV (peptide)
peptide: VMQDPEFLQSV
B19: KVLDKVFRA (peptide)
peptide: KVLDKVFRA
B20: VLGEVKVGV (peptide)
peptide: VLGEVKVGV
B21: YIHNILYEV (peptide)
peptide: YIHNILYEV
B22: RLFADILNDV (peptide)
peptide: RLFADILNDV
B23: AVIGGLIYV (peptide)
peptide: AVIGGLIYV
B24: LLIDVVTYL (peptide)
peptide: LLIDVVTYL
B25: SLSAFLPSL (peptide)
peptide: SLSAFLPSL
B26: AMGEKSFSV (peptide)
peptide: AMGEKSFSV
B27: RLIDLHTNV (peptide)
peptide: RLIDLHTNV
B28: KIADFELPTI (peptide)
peptide: KIADFELPTI
B29: TLGQFYQEV (peptide)
peptide: TLGQFYQEV
B30: VLIGSNHSL (peptide)
peptide: VLIGSNHSL
B31: TLPDFRLPEI (peptide)
peptide: TLPDFRLPEI
B32: ALNAVRLLV (peptide)
peptide: ALNAVRLLV
B33: SVYDGKLLI (peptide)
peptide: SVYDGKLLI
B34: KIAELLENV (peptide)
peptide: KIAELLENV
B35: GLSNLGIKSI (peptide)
peptide: GLSNLGIKSI
B36: LLLDKLILL (peptide)
peptide: LLLDKLILL
B37: ALLGKLDAI (peptide)
peptide: ALLGKLDAI
B38: WLIEDGKVVTV (peptide)
peptide: WLIEDGKVVTV
B39: ILSPLSVAL (peptide)
peptide: ILSPLSVAL
B40: TLGQIWDV (peptide)
peptide: TLGQIWDV
B41: NLAEVVERV (peptide)
peptide: NLAEVVERV
B42: KLSNVLQQV (peptide)
peptide: KLSNVLQQV
B43: TVGGSEILFEV (peptide)
peptide: TVGGSEILFEV
B44: RVIEHVEQV (peptide)
peptide: RVIEHVEQV
B45: KIQEILTQV (peptide)
peptide: KIQEILTQV
B46: ALYGRLEVV (peptide)
peptide: ALYGRLEVV
B47: KLLDEVTYLEA (peptide)
peptide: KLLDEVTYLEA
B48: ILADLNLSV (peptide)
peptide: ILADLNLSV
B49: KLGAVFNQV (peptide)
peptide: KLGAVFNQV
B50: ALAEALKEV (peptide)
peptide: ALAEALKEV
B51: ALTSISAGV (peptide)
peptide: ALTSISAGV
B52: QLIEVSSPITL (peptide)
peptide: QLIEVSSPITL
B53: ALTSVVVTL (peptide)
peptide: ALTSVVVTL
B54: ALQDAIRQL (peptide)
peptide: ALQDAIRQL
B55: NLIDLDDLYV (peptide)
peptide: NLIDLDDLYV
B56: LIGEFLEKV (peptide)
peptide: LIGEFLEKV
B57: ALQDQLVLV (peptide)
peptide: ALQDQLVLV
B58: ALPTVLVGV (peptide)
peptide: ALPTVLVGV
B59: KLLDTMVDTFL (peptide)
peptide: KLLDTMVDTFL
B60: ALLETNPYLL (peptide)
peptide: ALLETNPYLL
B61: ALDAGAVYTL (peptide)
peptide: ALDAGAVYTL
B62: ALLEADVNIKL (peptide)
peptide: ALLEADVNIKL
B63: ALLELDEPLVL (peptide)
peptide: ALLELDEPLVL
B64: HLTEAIQYV (peptide)
peptide: HLTEAIQYV
B65: KIDEKNFVV (peptide)
peptide: KIDEKNFVV
B66: KLFSGDELLEV (peptide)
peptide: KLFSGDELLEV
B67: ILADTFIGV (peptide)
peptide: ILADTFIGV
B68: GLIHLEGDTV (peptide)
peptide: GLIHLEGDTV
B69: KILEETLYV (peptide)
peptide: KILEETLYV
B70: KLHEEIDRV (peptide)
peptide: KLHEEIDRV
B71: GLLDPNVKSIFV (peptide)
peptide: GLLDPNVKSIFV
B72: GLYGRTIEL (peptide)
peptide: GLYGRTIEL
B73: GVLPGLVGV (peptide)
peptide: GVLPGLVGV
B74: KLKETIQKL (peptide)
peptide: KLKETIQKL

target: HLA-A*02 (human); test: UV-ligand exchange, anti-b2m ELISA; grade: exchange yield >=75%

Q: For B1, which peptide exchange yield is on record?
A: ≥ 75%

Q: For B2, which peptide exchange yield is on record?
A: ≥ 75%

Q: Which peptide exchange yield does the source give for B3 here?
A: ≥ 75%

Q: Which peptide exchange yield does the source give for B4 here?
A: ≥ 75%

Q: Which peptide exchange yield does the source give for B5 here?
A: ≥ 75%

Q: How did the peptide exchange yield turn out when B6 was run?
A: ≥ 75%

Q: B7 was tested. Which peptide exchange yield did it give?
A: ≥ 75%

Q: B8 was tested. Which peptide exchange yield did it give?
A: ≥ 75%

Q: How did the peptide exchange yield turn out when B9 was run?
A: ≥ 75%

Q: B10 was tested. Which peptide exchange yield did it give?
A: ≥ 75%

Q: How did the peptide exchange yield turn out when B11 was run?
A: ≥ 75%

Q: How did the peptide exchange yield turn out when B12 was run?
A: ≥ 75%

Q: For B13, which peptide exchange yield is on record?
A: ≥ 75%

Q: Which peptide exchange yield does the source give for B14 here?
A: ≥ 75%

Q: Which peptide exchange yield does the source give for B15 here?
A: ≥ 75%

Q: B16 was tested. Which peptide exchange yield did it give?
A: ≥ 75%

Q: B17 was tested. Which peptide exchange yield did it give?
A: ≥ 75%

Q: B18 was tested. Which peptide exchange yield did it give?
A: ≥ 75%

Q: B19 was tested. Which peptide exchange yield did it give?
A: ≥ 75%

Q: With B20 as the binder, how does the peptide exchange yield read?
A: ≥ 75%

Q: With B21 as the binder, how does the peptide exchange yield read?
A: ≥ 75%

Q: For B22, which peptide exchange yield is on record?
A: ≥ 75%

Q: B23 was tested. Which peptide exchange yield did it give?
A: ≥ 75%

Q: B24 was tested. Which peptide exchange yield did it give?
A: ≥ 75%

Q: Which peptide exchange yield does the source give for B25 here?
A: ≥ 75%

Q: For B26, which peptide exchange yield is on record?
A: ≥ 75%

Q: For B27, which peptide exchange yield is on record?
A: ≥ 75%

Q: For B28, which peptide exchange yield is on record?
A: ≥ 75%

Q: For B29, which peptide exchange yield is on record?
A: ≥ 75%

Q: B30 was tested. Which peptide exchange yield did it give?
A: ≥ 75%

Q: With B31 as the binder, how does the peptide exchange yield read?
A: ≥ 75%

Q: For B32, which peptide exchange yield is on record?
A: ≥ 75%

Q: B33 was tested. Which peptide exchange yield did it give?
A: ≥ 75%

Q: Which peptide exchange yield does the source give for B34 here?
A: ≥ 75%

Q: With B35 as the binder, how does the peptide exchange yield read?
A: ≥ 75%

Q: Which peptide exchange yield does the source give for B36 here?
A: ≥ 75%

Q: B37 was tested. Which peptide exchange yield did it give?
A: ≥ 75%

Q: For B38, which peptide exchange yield is on record?
A: ≥ 75%

Q: B39 was tested. Which peptide exchange yield did it give?
A: ≥ 75%

Q: Which peptide exchange yield does the source give for B40 here?
A: ≥ 75%

Q: For B41, which peptide exchange yield is on record?
A: ≥ 75%

Q: With B42 as the binder, how does the peptide exchange yield read?
A: ≥ 75%

Q: How did the peptide exchange yield turn out when B43 was run?
A: ≥ 75%

Q: How did the peptide exchange yield turn out when B44 was run?
A: ≥ 75%

Q: Which peptide exchange yield does the source give for B45 here?
A: ≥ 75%

Q: Which peptide exchange yield does the source give for B46 here?
A: ≥ 75%

Q: Which peptide exchange yield does the source give for B47 here?
A: ≥ 75%

Q: How did the peptide exchange yield turn out when B48 was run?
A: ≥ 75%

Q: With B49 as the binder, how does the peptide exchange yield read?
A: ≥ 75%

Q: Which peptide exchange yield does the source give for B50 here?
A: ≥ 75%

Q: For B51, which peptide exchange yield is on record?
A: ≥ 75%

Q: How did the peptide exchange yield turn out when B52 was run?
A: ≥ 75%

Q: Which peptide exchange yield does the source give for B53 here?
A: ≥ 75%

Q: With B54 as the binder, how does the peptide exchange yield read?
A: ≥ 75%

Q: For B55, which peptide exchange yield is on record?
A: ≥ 75%

Q: Which peptide exchange yield does the source give for B56 here?
A: ≥ 75%

Q: B57 was tested. Which peptide exchange yield did it give?
A: ≥ 75%

Q: For B58, which peptide exchange yield is on record?
A: ≥ 75%

Q: How did the peptide exchange yield turn out when B59 was run?
A: ≥ 75%

Q: Which peptide exchange yield does the source give for B60 here?
A: ≥ 75%

Q: Which peptide exchange yield does the source give for B61 here?
A: ≥ 75%

Q: B62 was tested. Which peptide exchange yield did it give?
A: ≥ 75%

Q: B63 was tested. Which peptide exchange yield did it give?
A: ≥ 75%

target: HLA-A*02 (human); test: UV-ligand exchange, anti-b2m ELISA; grade: exchange yield >=50%

Q: With B64 as the binder, how does the peptide exchange yield read?
A: 50 to 75%

Q: B65 was tested. Which peptide exchange yield did it give?
A: 50 to 75%

Q: B66 was tested. Which peptide exchange yield did it give?
A: 50 to 75%

Q: Which peptide exchange yield does the source give for B67 here?
A: 50 to 75%

Q: B68 was tested. Which peptide exchange yield did it give?
A: 50 to 75%

Q: How did the peptide exchange yield turn out when B69 was run?
A: 50 to 75%

Q: Which peptide exchange yield does the source give for B70 here?
A: 50 to 75%

Q: How did the peptide exchange yield turn out when B71 was run?
A: 50 to 75%

Q: Which peptide exchange yield does the source give for B72 here?
A: 50 to 75%

Q: B73 was tested. Which peptide exchange yield did it give?
A: 50 to 75%

Q: How did the peptide exchange yield turn out when B74 was run?
A: 50 to 75%

— patent US20160250307A1 (IMMATICS BIOTECHNOLOGIES, published 2016)
